Results published in paper PMC9553925.

What was measured:
[1] = biological target: Trypanosoma brucei mitochondrial F1Fo ATP synthase (monomer unit of the dimer) (T. brucei (endogenous in procyclic Lister strain 427)) (UniProt P24499); experiment: cryo-EM structure; ATP synthase dimers purified from T. brucei procyclic mitochondria in GDN with added β-DDM and phospholipids, pH 8.0; consensus dimer 3.2 Å, membrane region 2.7 Å, peripheral stalk 3.7 Å, rotor 3.7 Å, ten rotational substates 3.5–4.3 Å
[2] = biological target: ATP synthase subunit-c (T. brucei) (T. brucei (endogenous in procyclic Lister strain 427)); experiment: as above

Row | stoichiometry N [1] | stoichiometry N [2] | Substance
1 | 2 |  | Trypanosoma brucei mitochondrial F1Fo ATP synthase (monomer unit of the dimer) (from UniProt P24499 1-229) (complex)
2 |  | 10 | ATP synthase subunit-c (T. brucei) (natural protein)
